The text below walks through data of the supplement of paper PMC9170038.

The series has as its system K4 kissing-loop RNA reporter. Put plainly: apparent KD of K4 kissing-loop reporter; higher = weaker reporter binding. The following applies: Eterna round: R107. The procedure: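 RNA-MaP round R107: designed RNA switches with theophylline, tryptophan, arginine or FMN aptamers are transcribed on-chip within common flanks. They are titrated with a labelled K4 kissing-loop RNA reporter in RNA-MaP buffer (100 mM Tris pH 7.5, 80 mM KCl, 4 mM MgCl2), without ligand or with the indicated ligand. Median apparent KD per design.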

The mark [1] stands for this setting: input ligand: theophylline 20 uM.
[2] abbreviates: input ligand: tryptophan 2.4 mM.
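Further: bound reporter read as fluorescence of individual clusters on recovered sequencing chips by microscopy, with normalized cluster intensities fitted with a binding model.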

Regarding “UACGUUUUAUUAACACUAAAUACAACUGAAGGAGCGACAAUAAAGUCAGGUAGGUCGCAGAAUUAAUGAGUGAUGUUCAUUUUUA [JR_ExcArginiA_Sub015]”, the “apparent KD of K4 kissing-loop reporter” value by setting is: (input ligand: FMN 200 uM) 56.2 nM; (input ligand: arginine 13.2 mM) 117 nM; (input ligand: none) 65.9 nM; under setting [1], 92 nM; under setting [2], 48.1 nM.

On to “UACUAUAGUGAUGUUAUAGAUAAACCAGAUACCAGUGUAACAUAACACCCUUGGCAGCUGAUGAGGGAAAAUAUAAAUGUGUAUU [AstrosSSTHe-A#4newdesignED10.09]”, for which the “apparent KD of K4 kissing-loop reporter” value (input ligand: FMN 200 uM) is 196 nM; the “apparent KD of K4 kissing-loop reporter” value (input ligand: arginine 13.2 mM) turned out to be 204 nM; the “apparent KD of K4 kissing-loop reporter” value (input ligand: none) was found to be 198 nM; the “apparent KD of K4 kissing-loop reporter” value under setting [1] was 197 nM; the “apparent KD of K4 kissing-loop reporter” value under setting [2] came out at 197 nM.

On to “UACUAUAGUGAUGUUAUAGAUAAACCAGAUACCAGUGUAACAUAACACCCUUGGCAGCUGAUGAGGGAACAUAUGAAAACAUAUG [AstroSTH-A#6newdesignED4.78]”, for which the “apparent KD of K4 kissing-loop reporter” value reads like this: (input ligand: FMN 200 uM) 254 nM; (input ligand: arginine 13.2 mM) 209 nM; (input ligand: none) 256 nM; under setting [1], 215 nM; under setting [2], 222 nM.

As to “UACUCUCCUCCUGAUACCAGAUAAAUAUUAAUACAUUAGUGAUGUUAAUGCCCAAACCCGAUCCCUUGGCAGCAGAAUAUGCAGG [theeternabot_sameState_KL_Theo_B_25]”, the “apparent KD of K4 kissing-loop reporter” value is 152 nM (input ligand: FMN 200 uM); 240 nM (input ligand: arginine 13.2 mM); 202 nM (input ligand: none); 258 nM under setting [1]; 126 nM under setting [2].

On to “UACUUAUAGUUAUUUCUACAUUUAUUUAGUCAGGAUAUCGAUUAGUCGAGAAGGGACAAUAUCAAGUGAUGUUUGAUAAUUCAAA [JR_ExcFMNA_Sub012]”, for which the “apparent KD of K4 kissing-loop reporter” value (input ligand: FMN 200 uM) was determined as 89.9 nM; the “apparent KD of K4 kissing-loop reporter” value (input ligand: arginine 13.2 mM) came to 161 nM; the “apparent KD of K4 kissing-loop reporter” value (input ligand: none) worked out at 119 nM; the “apparent KD of K4 kissing-loop reporter” value under setting [1] stood at 158 nM; the “apparent KD of K4 kissing-loop reporter” value under setting [2] worked out at 84.9 nM.

For the sequence “UAGCGUAUUGAAGGAUAUUGCCUAGGAGUGAUGUUUGUAGAAAAUUUCCAACGGAACGAAUGUUAGCAAGAAGGUCAAUGGCCUU [theeternabot_exclusion_KL_FMN_B_40]”, the “apparent KD of K4 kissing-loop reporter” value was 230 nM (input ligand: FMN 200 uM); 239 nM (input ligand: arginine 13.2 mM); 404 nM (input ligand: none); 456 nM under setting [1]; 281 nM under setting [2].

For “UAGGAGUGAUGUUCCUUUAGCAGGUAGGAAGGAGCGCCCAUUUGGGCAGGUAGGUCGCCUACUGGCCCUAAGUUAAACCUUAGGC [KL-SSArg-A12]”, the “apparent KD of K4 kissing-loop reporter” value reads like this: (input ligand: FMN 200 uM) 160 nM; (input ligand: arginine 13.2 mM) 161 nM; (input ligand: none) 146 nM; under setting [1], 161 nM; under setting [2], 118 nM.

In the case of “UAGGAUUUUUCGGCCGCCACUCUAGAUUCUGUGUAUUAUCUACGACUUGAAGUGAUGUUUCAGGAGAGGACCGGGAAGAUAUAAC [theeternabot_exclusion_KL_Trp_B_27]”, the “apparent KD of K4 kissing-loop reporter” value was 226 nM (input ligand: FMN 200 uM); 210 nM (input ligand: arginine 13.2 mM); 238 nM (input ligand: none); 307 nM under setting [1]; 225 nM under setting [2].

In the case of “UAGGUGCCGAACCAGUGAUGUUGGAGUCAUCGAGGACCGGUACGGCCGCCACUCGGCAGCGCCGGCGCGAUUAAUUGCGGAGACA [theeternabot_sameState_KL_Trp_A_7]”, the “apparent KD of K4 kissing-loop reporter” value by setting is: (input ligand: FMN 200 uM) 689 nM; (input ligand: arginine 13.2 mM) 390 nM; (input ligand: none) 596 nM; under setting [1], 470 nM; under setting [2], 698 nM.

Turning to “UAGUCCUAGUGAUCCUUAUCAAGUGGUGGGCGAGGACCGGUACGGCCGCCACUCGAAUAUGCAGUGAUGUUGUAAUCCGGACAAU [Exclusion - Tryptophan A (Freestyle 11)]”, the “apparent KD of K4 kissing-loop reporter” value reads like this: (input ligand: FMN 200 uM) 897 nM; (input ligand: arginine 13.2 mM) 906 nM; (input ligand: none) 852 nM; under setting [1], 899 nM; under setting [2], 580 nM.

Turning to “UAGUCCUCUUCUUAUUUAUUCCCUAAUGCUAAGGAUAUCCGAAUUCGGAGAAGGUAGUGAUGUUACUUGAAGGGACAUAUUUAUU [AK6 Exc FMN A]”, the “apparent KD of K4 kissing-loop reporter” value (input ligand: FMN 200 uM) was found to be 412 nM; the “apparent KD of K4 kissing-loop reporter” value (input ligand: arginine 13.2 mM) is 554 nM; the “apparent KD of K4 kissing-loop reporter” value (input ligand: none) worked out at 684 nM; the “apparent KD of K4 kissing-loop reporter” value under setting [1] was found to be 771 nM; the “apparent KD of K4 kissing-loop reporter” value under setting [2] is 617 nM.

Regarding “UAUAGGGAUAGUGAUGUUAUCCCAUGUGAUACCAGUGCCAUCCAACACCCUUGGCAGCAUACGGGCAGUGAUGUUGUUCUUGGUA [Exclusion Theophylline A GF 14]”, the “apparent KD of K4 kissing-loop reporter” value amounted to 102 nM (input ligand: FMN 200 uM); 88.9 nM (input ligand: arginine 13.2 mM); 99.1 nM (input ligand: none); 89.5 nM under setting [1]; 97.2 nM under setting [2].

On to “UAUAUACAUAGAUAGUUGUAUAUCGAGGAAGGAGCGUGCGCAGGCACAGGUAGGUCGCCUCAGCGCACGAGUGAUGUUCGUGGGC [Tezale]”, for which the “apparent KD of K4 kissing-loop reporter” value (input ligand: FMN 200 uM) was 247 nM; the “apparent KD of K4 kissing-loop reporter” value (input ligand: arginine 13.2 mM) is 168 nM; the “apparent KD of K4 kissing-loop reporter” value (input ligand: none) is 267 nM; the “apparent KD of K4 kissing-loop reporter” value under setting [1] was 241 nM; the “apparent KD of K4 kissing-loop reporter” value under setting [2] is 246 nM.

With “UAUAUAGUGACGGCCGCCACUAUAUUAAUGUUUUUGUUAGAGUGAUGUUUUGUUUUAUAUUUUUAUAGGACCGGGUUAUAUGUUA [klppxmullin]”, the “apparent KD of K4 kissing-loop reporter” value runs as follows: (input ligand: FMN 200 uM) 497 nM; (input ligand: arginine 13.2 mM) 377 nM; (input ligand: none) 626 nM; under setting [1], 480 nM; under setting [2], 404 nM.

Regarding “UAUAUAGUGACGGCCGCCACUAUUGUGAUGUAGUUGUUAGAGUGAUGUUUUGUUGUUUGAUUUUGUAGGACCGGGUUAUAUGUUA [rccrwzmullin]”, the “apparent KD of K4 kissing-loop reporter” value (input ligand: FMN 200 uM) stood at 842 nM; the “apparent KD of K4 kissing-loop reporter” value (input ligand: arginine 13.2 mM) amounted to 565 nM; the “apparent KD of K4 kissing-loop reporter” value (input ligand: none) came out at 812 nM; the “apparent KD of K4 kissing-loop reporter” value under setting [1] came to 612 nM; the “apparent KD of K4 kissing-loop reporter” value under setting [2] came to 668 nM.

With “UAUAUAGUGACGGCCGCCACUAUUGUGAUGUUGUUGUUAGAGUGAUGUUUUGUUGUUUGAUUUUGUAGGACCGGGUUAUAUGUUA [ffdfzmullin]”, the “apparent KD of K4 kissing-loop reporter” value is 780 nM (input ligand: FMN 200 uM); 500 nM (input ligand: arginine 13.2 mM); 615 nM (input ligand: none); 567 nM under setting [1]; 562 nM under setting [2].

Turning to “UAUGGAGUGAUGUUCCGUAUGACUGUCGAUACCAGCCUGUGCCUUGGCCCUUGGCAGCGAAAAGCAUCGGCUAAUGUCGCGUCAU [Onaraed]”, the “apparent KD of K4 kissing-loop reporter” value stood at 201 nM (input ligand: FMN 200 uM); 191 nM (input ligand: arginine 13.2 mM); 194 nM (input ligand: none); 221 nM under setting [1]; 184 nM under setting [2].

For “UAUGUACACGGGUAGUGGUACAUCGAGGAAGGAGCGUGCGCAGGCACAGGUAGGUCGCCUCAGCGCACGAGUGAUGUUCGUGGGC [Inares]”, the “apparent KD of K4 kissing-loop reporter” value is, setting by setting: (input ligand: FMN 200 uM) 327 nM; (input ligand: arginine 13.2 mM) 259 nM; (input ligand: none) 306 nM; under setting [1], 298 nM; under setting [2], 265 nM.

For “UAUUAAUUGUCAGGAUAUCGAAAUCGAGUGAUGUUCGUAAAUUAAUUAUUAUUAAUAAUAUUUAUACGAGAAGGGACAUUAUUUA [JR_SSFMNB_Sub002]”, the “apparent KD of K4 kissing-loop reporter” value reads like this: (input ligand: FMN 200 uM) 236 nM; (input ligand: arginine 13.2 mM) 671 nM; (input ligand: none) 758 nM; under setting [1], 780 nM; under setting [2], 532 nM.

For the sequence “UAUUGGAGUGAUGUUCCAUUAACGAUCCUACGAGGACCGGUACGGCCGCCACUCGAAAUGCAGUGAUGUUGCAGCCAGCCGUAAA [Exclusion Trptophan A GF 7]”, the “apparent KD of K4 kissing-loop reporter” value by setting is: (input ligand: FMN 200 uM) 174 nM; (input ligand: arginine 13.2 mM) 167 nM; (input ligand: none) 183 nM; under setting [1], 188 nM; under setting [2], 162 nM.

As for “UCAAGAGAACUUAAAUUUGAUCAACGCUCGCGAGGACCGGUACGGCCGCCACUCGACCGUUAGUGCCUCAUCCAGUGAUGUUGGG [theeternabot_sameState_KL_Trp_A_6]”, the “apparent KD of K4 kissing-loop reporter” value (input ligand: FMN 200 uM) was found to be 537 nM; the “apparent KD of K4 kissing-loop reporter” value (input ligand: arginine 13.2 mM) turned out to be 394 nM; the “apparent KD of K4 kissing-loop reporter” value (input ligand: none) is 500 nM; the “apparent KD of K4 kissing-loop reporter” value under setting [1] was found to be 508 nM; the “apparent KD of K4 kissing-loop reporter” value under setting [2] was 476 nM.
